The target in experiment [1] is T1, hHER3 full length (human, UniProt P21860 20-1342).
T1 construct: On transfected CHO, CHO HER2/HER3, CHO EGFR/HER3 or CHO Flp-In cells; endogenous HER3 of MCF-7 and MDA-MB468 cells in the signalling assays; also called human HER3
Nature of the experiment: FACS, 400 nM, competitor 21B02-biotin. On the technique in general: A flow cytometer gives signals particle by particle.

The target in experiment [2] is T1, hHER3 full length. As to the kind of experiment: FACS, 400 nM, competitor 04C07-biotin.
Experiment [3] deals with T2, human HER2 (human, UniProt P04626 23-1255).
T2 construct: also called hHER2
Nature of the experiment: FACS, CHO-HER2.

The target in experiment [4] is T3, human HER4 (human, UniProt Q15303 26-1308). Nature of the experiment: FACS CHO-HER4, 2000 nM.
Experiment [5] addresses T1, hHER3 full length. Nature of the experiment: cell-based or functional assay.
In experiment [6] the target is T1, hHER3 full length. Nature of the experiment: FACS, 400 nM, competitor 17C08-biotin.
The target of experiment [7] is T2, human HER2. As to the kind of experiment: FACS CHO-HER2, 667 nM.
Experiment [8] has as its target T4, cHER3ECD (Maccaca fascicularis HER3 extracellular domain) (Macaca fascicularis, UniProt P21860 20-643 (human entry)).
T4 construct: also called cyno HER3ECD; cyno HER3-ECD
T4 chain: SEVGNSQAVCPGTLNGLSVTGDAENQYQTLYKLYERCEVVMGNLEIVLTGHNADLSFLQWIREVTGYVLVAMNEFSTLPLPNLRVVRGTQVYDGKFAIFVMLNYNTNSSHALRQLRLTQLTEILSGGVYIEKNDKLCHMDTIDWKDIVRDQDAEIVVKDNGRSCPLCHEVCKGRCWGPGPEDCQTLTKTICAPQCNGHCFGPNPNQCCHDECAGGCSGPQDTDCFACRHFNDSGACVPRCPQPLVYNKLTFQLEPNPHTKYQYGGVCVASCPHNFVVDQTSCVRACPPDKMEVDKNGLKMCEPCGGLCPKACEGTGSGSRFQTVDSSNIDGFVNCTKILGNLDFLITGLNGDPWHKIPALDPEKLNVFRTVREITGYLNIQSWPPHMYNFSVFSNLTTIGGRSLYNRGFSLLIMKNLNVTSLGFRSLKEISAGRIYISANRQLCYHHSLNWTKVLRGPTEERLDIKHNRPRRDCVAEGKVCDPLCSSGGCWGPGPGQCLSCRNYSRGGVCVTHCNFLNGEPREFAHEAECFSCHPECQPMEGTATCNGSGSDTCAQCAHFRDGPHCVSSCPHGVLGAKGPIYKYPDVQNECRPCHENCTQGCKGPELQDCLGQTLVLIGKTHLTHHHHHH
As to the kind of experiment: ELISA, coated cHER3-ECD. (An ELISA detects its analyte on a solid surface through an enzyme-linked reagent.)

The target in experiment [9] is T3, human HER4. Nature of the experiment: FACS CHO-HER4, 667 nM.
In experiment [10] the target is T1, hHER3 full length. As to the kind of experiment: cell-based or functional assay. This is another data set of the same source.
Experiment [11] addresses T2, human HER2. Nature of the experiment: FACS CHO-HER2, 2000 nM.
In experiment [12] the target is T5, hHER3 ECD (human HER3 extracellular domain) (human, UniProt P21860 20-643).
T5 construct: also called recombinant HER3-ECD
Nature of the experiment: ELISA, coated hHER3-ECD.

Experiment [13] addresses T3, human HER4. As to the kind of experiment: FACS CHO-HER4, 222 nM.
Experiment [14] addresses T1, hHER3 full length. As to the kind of experiment: FACS, 400 nM, competitor 04F10-biotin.
The target in experiment [15] is T6, human HER1 (human, UniProt P00533 25-1210).
T6 construct: also called EGFR; ErbB1
As to the kind of experiment: FACS, CHO-HER1.

In experiment [16] the target is T6, human HER1. As to the kind of experiment: FACS CHO-HER1, 667 nM.
Experiment [17] deals with T6, human HER1. As to the kind of experiment: FACS CHO-HER1, 2000 nM.
Experiment [18] has as its target T3, human HER4. As to the kind of experiment: FACS, CHO-HER4.
Experiment [19] has as its target T1, hHER3 full length. Nature of the experiment: FACS, 400 nM, competitor 18E08-biotin.
For experiment [20], the target named is T6, human HER1. As to the kind of experiment: FACS CHO-HER1, 222 nM.
Experiment [21] concerns the target T2, human HER2. Nature of the experiment: FACS CHO-HER2, 222 nM.
Experiment [22] concerns the target T1, hHER3 full length. Nature of the experiment: FACS, 400 nM, competitor 23F05-biotin.

T3 sequence (Q15303 26-1308 limits assumed): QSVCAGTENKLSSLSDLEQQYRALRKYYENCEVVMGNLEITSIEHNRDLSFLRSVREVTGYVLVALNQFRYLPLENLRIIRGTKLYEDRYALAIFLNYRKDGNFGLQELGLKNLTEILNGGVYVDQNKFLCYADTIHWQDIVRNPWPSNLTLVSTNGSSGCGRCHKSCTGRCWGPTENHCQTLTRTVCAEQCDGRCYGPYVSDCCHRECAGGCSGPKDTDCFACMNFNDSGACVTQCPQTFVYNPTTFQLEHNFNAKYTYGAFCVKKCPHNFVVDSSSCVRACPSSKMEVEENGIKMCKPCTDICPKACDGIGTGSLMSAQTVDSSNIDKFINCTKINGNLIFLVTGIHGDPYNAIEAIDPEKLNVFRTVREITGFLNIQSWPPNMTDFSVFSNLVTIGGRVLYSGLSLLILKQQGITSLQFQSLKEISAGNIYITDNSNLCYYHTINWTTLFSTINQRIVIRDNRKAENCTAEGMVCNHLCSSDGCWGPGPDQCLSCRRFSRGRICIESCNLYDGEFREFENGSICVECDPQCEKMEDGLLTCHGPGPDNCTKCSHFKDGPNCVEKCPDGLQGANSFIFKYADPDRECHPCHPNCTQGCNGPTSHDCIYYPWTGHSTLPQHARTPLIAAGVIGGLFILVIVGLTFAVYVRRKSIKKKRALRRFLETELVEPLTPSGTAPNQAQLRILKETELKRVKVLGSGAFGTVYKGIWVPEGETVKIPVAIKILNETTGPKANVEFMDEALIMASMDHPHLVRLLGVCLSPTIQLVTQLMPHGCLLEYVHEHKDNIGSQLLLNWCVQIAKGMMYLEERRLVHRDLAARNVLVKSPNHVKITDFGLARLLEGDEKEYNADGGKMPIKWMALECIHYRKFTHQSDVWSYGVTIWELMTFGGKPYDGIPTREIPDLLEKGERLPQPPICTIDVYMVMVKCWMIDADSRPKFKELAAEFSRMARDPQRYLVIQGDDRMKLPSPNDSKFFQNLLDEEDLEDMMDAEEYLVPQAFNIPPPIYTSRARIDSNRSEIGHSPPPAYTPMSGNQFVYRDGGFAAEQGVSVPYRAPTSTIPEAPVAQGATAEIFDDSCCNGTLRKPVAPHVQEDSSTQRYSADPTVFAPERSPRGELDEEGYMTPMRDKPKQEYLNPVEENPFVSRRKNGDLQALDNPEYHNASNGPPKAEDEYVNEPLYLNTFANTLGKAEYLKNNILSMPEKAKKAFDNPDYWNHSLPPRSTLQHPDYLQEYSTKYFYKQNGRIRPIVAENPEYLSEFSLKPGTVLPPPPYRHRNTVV

B1: 18G11 (VHH)
VHH: EVQLVESGGGLVQPGGSLRLSCAASGTLFKINAMGWYRQAPGKRRELVALITSSDTTDYAESVEGRFTISRDNTWNAVYLQMNSLKPEDTAVYYCHSDHYSMGVPEKRVIMYGQGTQVTVSS
notes: c-myc, His6-tagged form as expressed; also called HER3MS18G11; HER3MS018G11
On to B1, for which the “% competition” value with hHER3 full length [1] is 0%; with hHER3 full length [2], 0%; with hHER3 full length [6], 74%; in the experiment with hHER3 full length [14], 0%; with hHER3 full length [19] it was 97%; in the experiment with hHER3 full length [22], 0%. Moreover, the binding result in the experiment with human HER2 [3], with human HER1 [15] and in the experiment with human HER4 [18] was “no binding (tested: 2000 nM)” each time. Besides, the MCF with human HER4 [4] was found to be 124; with human HER2 [7], 117; with human HER4 [9] it was 56; with human HER2 [11], 65; with human HER4 [13], 57; with human HER1 [16], 87. The MCF in the experiment with human HER1 [17] is 97; with human HER1 [20] it was 101; in the experiment with human HER2 [21] it was 109. Also, in the experiment with hHER3 full length [5], the “IC50, HRG1-β1 induced pHER3, MCF-7” value turned out to be 1.03e-08 M. Moreover, the “IC50, HRG1-β1 induced pHER3, MDA-MB468” value in the experiment with hHER3 full length [5] came out at 7.03e-09 M. In addition, the EC50 (usually the concentration needed to bring the measured effect to its halfway point) in [8] amounted to 0.64 nM; in experiment [12], 0.72 nM. Moreover, the “IC50, HRG1-β1 induced pAkt, MCF-7” value with hHER3 full length [10] stood at 1.38e-07 M. Also, in the experiment with hHER3 full length [10], the “inhibition of HRG1-β1 induced pERK1/2, MCF-7” value was less than 50 % inhibition.

B2: 04C07 (VHH)
VHH: EVQLVESGGGLVQAGGSLRLSCAASGFTFSSYPMSWVRQAPGKGPAWVSTVSPGGITTSYADSVKGRFTISRDNAKNTLYLQMNSLKPEDTAVYYCLRDLNNRGQGTQVTVSS
notes: also called HER3MS04C07; HER3MS004C07
Take B2: the “% competition” value with hHER3 full length [1] stood at 2%; in the experiment with hHER3 full length [2], 100%; in the experiment with hHER3 full length [6] it was 15%; with hHER3 full length [14], 0%; in the experiment with hHER3 full length [19], 26%; with hHER3 full length [22] it was 0%. In addition, the binding result with human HER2 [3], with human HER1 [15] and with human HER4 [18] was “no binding (tested: 2000 nM)” in each case. For the same molecule, the MCF with human HER4 [4] came to 105; with human HER2 [7], 79; in the experiment with human HER4 [9] it was 103; with human HER2 [11] it was 154; in the experiment with human HER4 [13], 96; with human HER1 [16], 92. The MCF with human HER1 [17] is 72; in the experiment with human HER1 [20], 75; with human HER2 [21], 84. Also, the “IC50, HRG1-β1 induced pHER3, MCF-7” value with hHER3 full length [5] stood at 1.07e-09 M. The “IC50, HRG1-β1 induced pHER3, MDA-MB468” value in the experiment with hHER3 full length [5] was determined as 6.68e-09 M. The EC50 was 0.93 nM in experiment [8] and 0.86 nM in [12]. Also, the “IC50, HRG1-β1 induced pAkt, MCF-7” value with hHER3 full length [10] stood at 1.09e-08 M. Also, the “IC50, HRG1-β1 induced pERK1/2, MCF-7” value with hHER3 full length [10] was found to be 2.79e-08 M.

B3: 17C08 (VHH)
VHH: EVQLVESGGGLMQAGDSLRLSCAASGRAFSSYALGWFRRAPGKERECVAATDRLGDNTYFPDSVKGRFTISRDNAKNTLYLQMNNLKPEDTAVYYCAAGAVRYGVSTSPMNYNYWGQGTQVTVSS
notes: also called 17C8
Turning to B3, the “% competition” value with hHER3 full length [1] came out at 16%; with hHER3 full length [2], 3%; in the experiment with hHER3 full length [6], 97%; with hHER3 full length [14], 77%; in the experiment with hHER3 full length [19], 98%; with hHER3 full length [22], 17%. Also, the binding result with human HER2 [3], in the experiment with human HER1 [15] and in the experiment with human HER4 [18] was “no binding (tested: 2000 nM)” throughout. The MCF with human HER4 [4] was determined as 254; in the experiment with human HER2 [7] it was 418; in the experiment with human HER4 [9], 91; with human HER2 [11], 1220; with human HER4 [13], 210; in the experiment with human HER1 [16], 47. Besides, the MCF in the experiment with human HER1 [17] amounted to 58; with human HER1 [20], 62; with human HER2 [21] it was 160. Also, the “IC50, HRG1-β1 induced pHER3, MCF-7” value with hHER3 full length [5] is 8.98e-08 M. Further, in the experiment with hHER3 full length [5], the “IC50, HRG1-β1 induced pHER3, MDA-MB468” value was determined as 5.38e-08 M. Moreover, the EC50 amounted to 0.59 nM in experiment [8] and 0.62 nM in experiment [12]. Besides, the “IC50, HRG1-β1 induced pAkt, MCF-7” value in the experiment with hHER3 full length [10] is 7.24e-07 M. Further, the “inhibition of HRG1-β1 induced pERK1/2, MCF-7” value in the experiment with hHER3 full length [10] is less than 50 % inhibition.

Source of the values: patent US20130136748A1 (Ablynx, published 2013).
